In patent US20120207670A1:

Biological target: IL-12 (mouse; target of the rat anti-mouse antibodies in the in vitro neutralization studies) (mouse) (UniProt P43432)
Assay: cell-based or functional assay

Chain of IL-12 (mouse; target of the rat anti-mouse antibodies in the in vitro neutralization studies) (mouse) (P43432 23-335, chain 1 of 2): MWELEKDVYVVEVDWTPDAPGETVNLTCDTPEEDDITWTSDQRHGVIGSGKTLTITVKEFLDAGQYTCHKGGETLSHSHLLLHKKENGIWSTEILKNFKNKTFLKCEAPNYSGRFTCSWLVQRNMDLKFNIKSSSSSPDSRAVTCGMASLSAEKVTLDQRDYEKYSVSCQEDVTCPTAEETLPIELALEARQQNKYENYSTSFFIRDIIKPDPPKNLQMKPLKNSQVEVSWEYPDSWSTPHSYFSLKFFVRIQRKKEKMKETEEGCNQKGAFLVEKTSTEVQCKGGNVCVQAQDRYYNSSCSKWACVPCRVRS
Chain of IL-12 (mouse; target of the rat anti-mouse antibodies in the in vitro neutralization studies) (mouse) (P43431 23-215, chain 2 of 2, further chain): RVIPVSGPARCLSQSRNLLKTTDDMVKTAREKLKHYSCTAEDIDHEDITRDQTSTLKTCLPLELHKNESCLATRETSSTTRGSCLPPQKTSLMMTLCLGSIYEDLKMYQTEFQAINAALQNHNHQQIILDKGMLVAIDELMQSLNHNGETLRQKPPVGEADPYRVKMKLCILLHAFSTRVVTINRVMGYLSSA

in vitro neutralization of IL-12 (fold (against anti-p35 mAb C18.2)): 5
Substance: C17.8 (rat anti-mouse IL-12/IL-23p40, IgG2a) (antibody)
